Here are results for 2 proteins from doi:10.1101/2024.03.04.583282v1.

What all share (settings): acCoA co-substrate, 50 mM Tris-HCl pH 8.5, 150 mM NaCl, 25 °C
Substrate in series [1]: NCCCN
In words: purified protein.

Substrate in series [2]: NCCCC[C@H](N)C(=O)O
In words: purified protein.

Substrate in series [3]: NCCC[C@H](N)C(=O)O
The series is described as follows: purified protein.

Substrate in series [4]: NCCCCN
In words: DTNB acetyltransferase assay. It is filed as biochemical, Arabidopsis thaliana.

Substrate in series [5]: NCCCNCCCCNCCCN
In words: DTNB acetyltransferase assay. The series is classed as biochemical, Arabidopsis thaliana.

Substrate in series [6]: NCCSC[C@H](N)C(=O)O
The series is described as follows: DTNB acetyltransferase assay. The series is classed as biochemical, Arabidopsis thaliana.

B1: NATA1Δ (Arabidopsis thaliana) (protein)
chain: TGHRMFSRIRLATPTDVPFIHKLIHQMAVFERLTHLFVATESGLASTLFNSRPFQAVTVFLLEISPSPFPTTHDASSPDFTPFLETHKVDLPIEDPDREKFLPDKLNDVVVAGFVLFFPNYPSFLAKQGFYIEDIFMREPYRRKGFGKLLLTAVAKQAVKLGVGRVEWIVIDWNVNAINFYEQMGAQVFKEWRLCRLTGDALQAIDKLNI
By Km is commonly meant the substrate concentration at which the rate is half of its maximum. For orientation: kcat means the maximal rate divided by the concentration of active sites. With B1, the Km is 440 ± 120 µM in the series “purified protein [1]”; 12700 ± 3520 µM in “purified protein [2]”; 4040 ± 820 µM in the series “purified protein [3]”; 1900 ± 420 µM in series [4]; 2260 ± 500 µM in series [5]; 540 ± 130 µM in series [6]. Besides, the kcat in “purified protein [1]” was determined as 1.59 ± 0.08 s⁻¹; in the series “purified protein [2]” it was 0.58 ± 0.09 s⁻¹; in the series “purified protein [3]”, 0.64 ± 0.05 s⁻¹; in series [4], 1.11 ± 0.12 s⁻¹; in series [5] it was 1.56 ± 0.10 s⁻¹; in series [6] it was 2.04 ± 0.20 s⁻¹.

B2: NATA2Δ (Arabidopsis thaliana) (protein)
chain: MFSRIRLATPSDVPFIHKLIHQMAVFERLTHLFSATESGLASTLFTSRPFQSFTVFLLEVSRSPFPATITSSPSPDFTPFFKTHNLDLPIDDPESYNFSPDMLNDVVVAGFVLFFPNYSSFLSKPGFYIEDIFVREPYRRKGFGSMLLTAVAKQAVKMGYGRVEWVVLDWNVNAIKFYEQMGAQILQEWRVCRLTGDALEAFDQVNI
For the protein B2, the Michaelis-Menten constant (Km) is 370 ± 70 µM in “purified protein [1]”; 9480 ± 2530 µM in the series “purified protein [2]”; 2290 ± 480 µM in series [4]; 1620 ± 350 µM in series [5]; 330 ± 80 µM in series [6]. For the same protein, the kcat in “purified protein [1]” was 1.46 ± 0.07 s⁻¹; in “purified protein [2]” it was 0.45 ± 0.10 s⁻¹; in series [4], 1.04 ± 0.07 s⁻¹; in series [5], 1.49 ± 0.08 s⁻¹; in series [6] it was 2.20 ± 0.10 s⁻¹.
